Measured values published in patent US20030182691A1.

Legend:
[1] = target: T1, papain (cysteine protease) (UniProt P00784); assay: phage ELISA, papain coated in well, phage diluted 1 in 100, anti-M13/HRP detection
T1 sequence (looked up): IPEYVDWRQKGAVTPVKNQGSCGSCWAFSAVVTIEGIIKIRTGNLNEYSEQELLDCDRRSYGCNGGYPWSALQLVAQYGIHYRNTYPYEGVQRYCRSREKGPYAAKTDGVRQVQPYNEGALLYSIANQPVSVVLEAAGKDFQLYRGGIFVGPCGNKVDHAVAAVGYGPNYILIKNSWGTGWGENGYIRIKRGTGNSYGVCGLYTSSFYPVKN

[2] = target: trypsin (serine protease); assay: phage ELISA, trypsin coated in well, phage diluted 1 in 100, anti-M13/HRP detection
[3] = target: T1, papain (cysteine protease); assay: cell-based or functional assay
[4] = target: T2, POV-1 protein: Brassica napus Sta 44G(2) / Onchocerca volvulus OV7 protease inhibitor translational fusion, P22085
T2 chain: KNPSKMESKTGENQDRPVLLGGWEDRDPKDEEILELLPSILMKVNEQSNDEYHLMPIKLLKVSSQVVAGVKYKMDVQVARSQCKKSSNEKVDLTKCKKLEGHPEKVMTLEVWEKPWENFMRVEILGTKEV

[5] = target: T3, OV7/GST (cysteine protease inhibitor OV7 conjugated to GST), P22085
T3 chain: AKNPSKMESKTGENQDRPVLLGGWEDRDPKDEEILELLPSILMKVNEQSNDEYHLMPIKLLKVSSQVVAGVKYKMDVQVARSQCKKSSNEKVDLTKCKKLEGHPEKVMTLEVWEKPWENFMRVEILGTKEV

[6] = target: POP-1 protein: Brassica napus Sta 44G(2) / Sitophilus zeamais SCPc1 protease translational fusion (Brassica napus; Sitophilus zeamais); assay: cell-based or functional assay

M13 wild type or control phage not displaying any foreign protein
O.D.410 (O.D. at 410 nm) [1]: 0.043 | O.D.410 (O.D. at 410 nm) [2]: 0.026

B1: recombinant onchocystatin (OV7), cysteine protease inhibitor (protein)
chain: T3 chain
Average Pollen Tube Length (tobacco pollen in vitro, 42 µM papain + 30 µM onchocystatin) [3]: 80 µm | Pollen Germination (tobacco pollen in vitro, 42 µM papain + 30 µM onchocystatin) [3]: 69%

B2: papain (cysteine protease) (protein)
chain: T1 sequence (looked up)
percentage of papain protease activity (substrate Pyr-Phe-Leu-pNA, 410 nm) relative to the non-transformed control plant extract [4]: 53% to 61% | percentage of papain protease activity (substrate Pyr-Phe-Leu-pNA, 410 nm) relative to the non-transformed control plant extract [5]: 2%

B3: POV-1 protein: Brassica napus Sta 44G(2) / Onchocerca volvulus OV7 protease inhibitor translational fusion (protein)
chain: T2 chain
Percent Loss of Viability (Alexander staining of pollen, F1 plant POP 2 X POV 20 No. 2) [6]: 19% | Percent Loss of Viability (Alexander staining of pollen, F1 plant POP 2 X POV 20 No. 3) [6]: 21% | Percent Loss of Viability (Alexander staining of pollen, F1 plant POP 12 X POV 20 No. 1) [6]: 66% | Percent Loss of Viability (Alexander staining of pollen, F1 plant POP 12 X POV 20 No. 4) [6]: 58% | Percent Loss of Viability (Alexander staining of pollen, F1 plant POP 12 X POV 25 No. 1) [6]: 26% | Percent Loss of Viability (Alexander staining of pollen, F1 plant POP 12 X POV 25 No. 2) [6]: 19%
